Test results as given in publication PMC4608377, “Substrate specificity and transport mechanism of amino-acid transceptor Slimfast from Aedes aegypti” (Nature Communications, 2015).

Key:
Conditions in all cases: high-affinity site of two-site fit (apparent dissociation constant); 98 mM Na+ buffer; holding voltage -50 mV
[1] = substrate: N[C@@H](Cc1ccccc1)C(=O)O; test: two-electrode voltage clamp, substrate-induced currents in Xenopus oocytes, two-site saturation fit; format: cell-based, Aedes aegypti
[2] = substrate: N=C(N)NCCC[C@H](N)C(=O)O; test: as above; format: cell-based, Aedes aegypti
[3] = substrate: NCCC[C@H](N)C(=O)O; test: cells, lysate or membranes

B1: AaSlif (=AaCAT3; Slimfast) (Aedes aegypti) (protein)
chain: MRQGGRIDRFWIALTRKKRNEDDGSDSQLARVLSLLDLTGLGVGSTLGLGVYVLAGSVAYEQAGPAVVISFLVAAVASAIAALCYAEFAARVPKAGSAYIYSYVSIGEFAAFTIGWNLILEYVIGTSSVARGMSGYIDELAGKKISTALKETMGMNVDFLSDYPDFFSFVVVLILAALLAYGVKESTLMNNIFTGVNLCVIAIVLVAGGMNCDPANWMIKPEDIPKGIDAGVGGFAPYGFAGIMAGAAKCFYGFVGFDCIATTGEEAKNPSRNIPLAIVISLIIIFLAYFGISTVLTMALPYYLQNPDAPFPHLFEQLEWHAIKWIVSIGAIFALCTSLLGAMFPLPRVLYAMSTDGIIYKKLRTVHPKTQTPVLATILAGLLAATMAMLFNLQQLIDMMSIGTLLAYTIVAVSVLVLRYEDQTLMQSATVTIPNVFRQVFNVDKLKSPTTLSSSIVKFGICIFALLVCAVCTILVLATDELSAEYPGTLAAISVLGACMVFLIIVTALQPTENTKLTFKVPLVPLLPMLSVFFNLYLMFQLDAGTWVRFAVWIVIGYLIYFTYGIKHSVEGAIAKQAAVNGNGITIVKNGIDNNAFDGSNDKFVSTVPAENPRKSSKNSYSLNNE
notes: full length, 626 residues (1,881-nt ORF); Xenopus codon-optimised (synonymous) in pXOOM, without tag or with C-terminal eGFP (used interchangeably); cRNA expressed in Xenopus laevis oocytes
[1]
  K0.5: 15.6 ± 8.5 µM
[2]
  K0.5: 5.2 ± 1.4 µM
[3]
  K0.5: 13.8 ± 6.2 µM
